Changes are numbered by the printed parent chain. In names and notes the source's numbering stands.
B1: CE115HA000 H35D one-arm antibody (antibody, human IgG1, kappa, L234A L235A, N297A, name in Kabat numbering)
heavy: QVQLVESGGGVVQPGRSLRLSCAASGFTFSNAWMDWVRQAPGKGLEWVAQIKAKSNNYATYYAESVKGRFTISRDDSKNSLYLQMNSLKTEDTAVYYCRYVHYGAYYGVDAWGQGTTVTVSSASTKGPSVFPLAPSSKSTSGGTAALGCLVKDYFPEPVTVSWNSGALTSGVHTFPAVLQSSGLYSLSSVVTVPSSSLGTQTYICNVNHKPSNTKVDKKVEPKSCDKTHTCPPCPAPEAAGGPSVFLFPPKPKDTLMISRTPEVTCVVVDVSHEDPEVKFNWYVDGVEVHNAKTKPREEQYASTYRVVSVLTVLHQDWLNGKEYKCKVSNKALPAPIEKTISKAKGQPREPQVYTLPPSRCELTKNQVSLSCAVKGFYPSDIAVEWESNGQPENNYKTTPPVLDSDGSFFLVSKLTVDKSRWQQGNVFSCSVMHEALHNHYTQKSLSLSPDYKDDDDK
chain: EPKSSDKTHTCPPCPAPELLGGPSVFLFPPKPKDTLMISRTPEVTCVVVDVSHEDPEVKFNWYVDGVEVHNAKTKPREEQYNSTYRVVSVLTVLHQDWLNGKEYKCKVSNKALPAPIEKTISKAKGQPREPQVCTLPPSRDELTKNQVSLWCLVKGFYPSDIAVEWESNGQPENNYKTTPPVLDSDGSFFLYSKLTVDKSRWQQGNVFSCSVMHEALHNRYTQKSLSLSP
light: DIVMTQSPLSLPVTPGEPASISCRSSQSLVHSNRNTYLHWYQQKPGQAPRLLIYKVSNRFSGVPDRFSGSGSGTDFTLKISRVEAEDVGVYYCGQGTQVPYTFGQGTKLEIKRTVAAPSVFIFPPSDEQLKSGTASVVCLLNNFYPREAKVQWKVDNALQSGNSQESVTEQDSKDSTYSLSSTLTLSKADYEKHKVYACEVTHQGLSSPVTKSFNRGEC
B2: CE115HA000 H35E one-arm antibody (antibody, human IgG1, kappa, L234A L235A, N297A, name in Kabat numbering)
heavy: B1 heavy with D35E
chain: B1 chain
light: B1 light
B3: CE115HA000 H35W one-arm antibody (antibody, human IgG1, kappa, L234A L235A, N297A, name in Kabat numbering)
heavy: B1 heavy with D35W
chain: B1 chain
light: B1 light
B4: CE115HA000 H35G one-arm antibody (antibody, human IgG1, kappa, L234A L235A, N297A, name in Kabat numbering)
heavy: B1 heavy with D35G
chain: B1 chain
light: B1 light
B5: CE115HA000 H96L one-arm antibody (antibody, human IgG1, kappa, L234A L235A, N297A, name in Kabat numbering)
heavy: B1 heavy with D35H, H102L
chain: B1 chain
light: B1 light
B6: CE115HA000 H35N one-arm antibody (antibody, human IgG1, kappa, L234A L235A, N297A, name in Kabat numbering)
heavy: B1 heavy with D35N
chain: B1 chain
light: B1 light
B7: CE115HA000 H35L one-arm antibody (antibody, human IgG1, kappa, L234A L235A, N297A, name in Kabat numbering)
heavy: B1 heavy with D35L
chain: B1 chain
light: B1 light
B8: CE115HA000 H35V one-arm antibody (antibody, human IgG1, kappa, L234A L235A, N297A, name in Kabat numbering)
heavy: B1 heavy with D35V
chain: B1 chain
light: B1 light
B9: CE115HA000 H35T one-arm antibody (antibody, human IgG1, kappa, L234A L235A, N297A, name in Kabat numbering)
heavy: B1 heavy with D35T
chain: B1 chain
light: B1 light
B10: CE115HA000 H35F one-arm antibody (antibody, human IgG1, kappa, L234A L235A, N297A, name in Kabat numbering)
heavy: B1 heavy with D35F
chain: B1 chain
light: B1 light
B11: CE115HA000 H96Q one-arm antibody (antibody, human IgG1, kappa, L234A L235A, N297A, name in Kabat numbering)
heavy: B1 heavy with D35H, H102Q
chain: B1 chain
light: B1 light
B12: CE115HA000 H35Y one-arm antibody (antibody, human IgG1, kappa, L234A L235A, N297A, name in Kabat numbering)
heavy: B1 heavy with D35Y
chain: B1 chain
light: B1 light
B13: CE115HA000 H35R one-arm antibody (antibody, human IgG1, kappa, L234A L235A, N297A, name in Kabat numbering)
heavy: B1 heavy with D35R
chain: B1 chain
light: B1 light
B14: CE115HA000 H96K one-arm antibody (antibody, human IgG1, kappa, L234A L235A, N297A, name in Kabat numbering)
heavy: B1 heavy with D35H, H102K
chain: B1 chain
light: B1 light
B15: CE115HA000 H96R one-arm antibody (antibody, human IgG1, kappa, L234A L235A, N297A, name in Kabat numbering)
heavy: B1 heavy with D35H, H102R
chain: B1 chain
light: B1 light
B16: CE115HA000 H35Q one-arm antibody (antibody, human IgG1, kappa, L234A L235A, N297A, name in Kabat numbering)
heavy: B1 heavy with D35Q
chain: B1 chain
light: B1 light
B17: CE115HA000 H96P one-arm antibody (antibody, human IgG1, kappa, L234A L235A, N297A, name in Kabat numbering)
heavy: B1 heavy with D35H, H102P
chain: B1 chain
light: B1 light
B18: CE115HA000 H35M one-arm antibody (antibody, human IgG1, kappa, L234A L235A, N297A, name in Kabat numbering)
heavy: B1 heavy with D35M
chain: B1 chain
light: B1 light
B19: CE115HA000 H35K one-arm antibody (antibody, human IgG1, kappa, L234A L235A, N297A, name in Kabat numbering)
heavy: B1 heavy with D35K
chain: B1 chain
light: B1 light
B20: CE115HA000 H35I one-arm antibody (antibody, human IgG1, kappa, L234A L235A, N297A, name in Kabat numbering)
heavy: B1 heavy with D35I
chain: B1 chain
light: B1 light
B21: CE115HA000 H35S one-arm antibody (antibody, human IgG1, kappa, L234A L235A, N297A, name in Kabat numbering)
heavy: B1 heavy with D35S
chain: B1 chain
light: B1 light
B22: CE115HA000 H96G one-arm antibody (antibody, human IgG1, kappa, L234A L235A, N297A, name in Kabat numbering)
heavy: B1 heavy with D35H, H102G
chain: B1 chain
light: B1 light

Molecular target: T1, CD3ε homodimer protein (human, UniProt P07766 23-126, limits assumed, sulfo-tag or biotin label in the ECL assays; amine-coupled to the chip in SPR)
T1 construct: also called human CD3ε homodimer protein; CD3 (CD3ε)
T1 sequence (P07766 23-126 limits assumed): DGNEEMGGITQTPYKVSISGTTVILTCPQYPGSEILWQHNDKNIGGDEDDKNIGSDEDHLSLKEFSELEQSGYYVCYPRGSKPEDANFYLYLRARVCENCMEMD
Experiment: SPR Biacore T200; CD3ε homodimer on CM4 chip;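 note: Single-residue variant antibodies injected as analyte over CD3ε homodimer immobilized by amine coupling, run at 25 °C in HBS-EP+ buffer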

First: B1
Second: B2
The “ratio of amounts bound Z=Y/X (altered form / CE115HA000)” value of the first is higher: 0.2 for the first, 0.19 for the second.

B3 and B4 are the same in “ratio of amounts bound Z=Y/X (altered form / CE115HA000)” value: 0.22 for the first, 0.22 for the second.

Compared with B5, B6 is higher in “ratio of amounts bound Z=Y/X (altered form / CE115HA000)” value: 0.14 for the first, 0.35 for the second.

Compared with B7, B8 is higher in “ratio of amounts bound Z=Y/X (altered form / CE115HA000)” value: 0.11 for the first, 0.22 for the second.

Going from B9 to B10, the “ratio of amounts bound Z=Y/X (altered form / CE115HA000)” value falls from 0.26 to 0.21.

First: B11
Second: B12
The “ratio of amounts bound Z=Y/X (altered form / CE115HA000)” value of the first is higher: 0.42 for the first, 0.16 for the second.

Compared with B13, B14 is higher in “ratio of amounts bound Z=Y/X (altered form / CE115HA000)” value: 0.14 for the first, 0.35 for the second.

First: B15
Second: B16
The “ratio of amounts bound Z=Y/X (altered form / CE115HA000)” value of the first is higher: 0.46 for the first, 0.13 for the second.

First: B17
Second: B18
The “ratio of amounts bound Z=Y/X (altered form / CE115HA000)” value of the first is lower: 0.12 for the first, 0.29 for the second.

First: B19
Second: B20
The “ratio of amounts bound Z=Y/X (altered form / CE115HA000)” value of the first is higher: 0.15 for the first, 0.12 for the second.

Going from B21 to B22, the “ratio of amounts bound Z=Y/X (altered form / CE115HA000)” value rises from 0.23 to 0.43.

From patent publication US20260049138A1 (Chugai, published 2026)
